Test results published in patent publication US20160279247A1, “CYCLIC PEPTIDE” (THE SECRETARY OF STATE FOR BUSINESS, INNOVATION & SKILLS OF …, published 2016).
Where no end group is shown, it is not given here.

Molecular target: T1, D2 peptide (C-terminal amide ('am'))
T1 peptide: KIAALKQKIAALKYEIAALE
Experiment: CD spectroscopy, thermal denaturation of the equimolar mixture (100 uM in each peptide)
Description: CD spectra were recorded on an Applied Photosystem Chirascan spectropolarimetre fitted with a Peltier temperature controller. All measurements were taken in ellipticities in mdeg and after baseline correction were converted to mean residue ellipticity (MRE; deg cm² dmol res⁻¹) by normalising for the concentration of peptide bonds and cuvette pathlength. Aqueous peptide solutions (300 μL, 100 μM in each peptide unless stated otherwise) were prepared in filtered (0.22 μm) 10 mM MOPS or phosphate buffer, pH 7.4. To calculate the percent α-helix, the equation, −100([q]₂₂₂+3000)/33 000), was used.
Thermal denaturation curves (solid lines) and their first derivatives (dashed lines) for SaNet (FIG. 8a), D1-D2 (FIGS. 8b) and D1 (FIG. 8c); and CD spectra following the thermal unfolding of D1-D2 (FIGS. 8d) and D1 (FIG. 8e); 10° C. (dotted line) and 90° C. (dashed line) with intervening spectra recorded every 10° C. (solid lines).

EIAALEQEIAALEYKIAALK-NH2 [D1 peptide]
transition midpoint of thermal unfolding of the D1+D2 mixture: ~55 ° C.
